Source: article PMC7659714 (The Journal of Cell Biology, 2020)

Tests used:
[1] = target: T1, GluA1 expressed in HEK cells (mTurquoise2-GluA1) (mouse, UniProt P23818 19-907); test: co-IP
[2] = target: T1, GluA1 expressed in HEK cells …; test: FRET or BRET

T1 sequence (P23818 19-907): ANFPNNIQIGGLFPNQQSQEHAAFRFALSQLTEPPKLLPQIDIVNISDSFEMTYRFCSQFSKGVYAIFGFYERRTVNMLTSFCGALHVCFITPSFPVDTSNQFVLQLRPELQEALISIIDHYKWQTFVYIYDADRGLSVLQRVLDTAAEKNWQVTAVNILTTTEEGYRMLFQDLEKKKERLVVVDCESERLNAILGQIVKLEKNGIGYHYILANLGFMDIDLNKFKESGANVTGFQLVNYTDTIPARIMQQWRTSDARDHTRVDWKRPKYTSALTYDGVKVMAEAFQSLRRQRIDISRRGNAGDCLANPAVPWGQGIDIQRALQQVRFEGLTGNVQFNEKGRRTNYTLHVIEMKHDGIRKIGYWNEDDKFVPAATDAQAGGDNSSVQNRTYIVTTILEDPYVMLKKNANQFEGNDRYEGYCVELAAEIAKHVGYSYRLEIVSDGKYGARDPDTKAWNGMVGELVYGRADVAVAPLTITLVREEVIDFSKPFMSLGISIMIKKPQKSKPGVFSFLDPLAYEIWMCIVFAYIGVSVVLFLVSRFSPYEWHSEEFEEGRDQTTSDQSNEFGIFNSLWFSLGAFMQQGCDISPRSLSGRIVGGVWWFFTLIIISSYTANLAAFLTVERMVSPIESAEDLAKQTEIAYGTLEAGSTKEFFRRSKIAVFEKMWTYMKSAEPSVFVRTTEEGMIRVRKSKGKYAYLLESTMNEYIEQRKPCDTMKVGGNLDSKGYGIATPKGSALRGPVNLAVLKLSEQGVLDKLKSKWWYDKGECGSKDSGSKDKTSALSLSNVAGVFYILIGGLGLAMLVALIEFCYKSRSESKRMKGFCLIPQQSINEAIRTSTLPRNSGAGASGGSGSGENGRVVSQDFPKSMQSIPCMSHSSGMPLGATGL

Binder | coimmunoprecipitated CPT1C versus immunoprecipitated GluA1, relative to WT CPT1C [1] | percentage of FRET efficiency [2] [%]
CPT1CΔCterm-FLAG (truncated CPT1C, last 39 aa replaced by FLAG) expressed in HEK cells for co-immunoprecipitation (domain or fragment, UniProt Q8BGD5 1-759, looked up) MAEAHQASSLLSSLSSDGAEVELSSPVWQEIYLCALRSWKRHLWRVWNDFLAGVVPATPLSWLFLFSTIQLACLLQLDPSLGLMEKIKELLPDWGGQHHQLQGFLSAAVFASCLWGALIFTLHVALRLLLSHHGWLLEPHGAMSSPTKTWLALVRIFSGRHPRLFSFQRALPRQPVPSAQETVRKYLESVRPVLGDDAFDRATALANDFLRLHAPRLQLYLQLKSWCTSNYVSDWWEEFVYLRSRGSLINSTYYMMDFLYVTPTPLQAARAGNAVHTLLLYRHLLNRQEISPTLLMGMRPLCSAQYERMFNTTRIPGVEKDHLRHLQDSRHVAVFHRGRFFRVGTHSPNGLLSPRALEQQFQDILDDPSPACPLEEHLAALTAAPRSMWAQVRESVKTHAATALEAVEGAAFFVSLDSEPAGLTREDPAASLDAYAHALLAGRGHDRWFDKSFTLIVFSNGKLGLSVEHSWADCPVSGHLWEFTLATECFQLGYATDGHCKGHPDPTLPQPQRLQWDLPEQIQPSISLALRGAKTLSGNIDCHVFPFSHFGKSFIKCCHVSSDSFIQLVLQLAHFRDRGQFCLTYESAMTRLFLEGRTETVRSCTREACQFVRAMDNKETDQHCLALFRVAVDKHQALLKAAMSGQGIDRHLFALYIMSRLLHMQSPFLTQVQSQQWLLSTSQVPVQQTHLIDVHNYPDYVSSGGGFGPAHDHGYGISYIFMGENAITFHISSKKSSTETDSHRLGQHIENALLDVASL | 0.12 ratio to GluA1 + WT CPT1C (1.00) | 
CPT1CM589S (malonyl-CoA-insensitive CPT1C) expressed in HEK cells for co-immunoprecipitation (natural protein, UniProt Q8BGD5 1-798, looked up) MAEAHQASSLLSSLSSDGAEVELSSPVWQEIYLCALRSWKRHLWRVWNDFLAGVVPATPLSWLFLFSTIQLACLLQLDPSLGLMEKIKELLPDWGGQHHQLQGFLSAAVFASCLWGALIFTLHVALRLLLSHHGWLLEPHGAMSSPTKTWLALVRIFSGRHPRLFSFQRALPRQPVPSAQETVRKYLESVRPVLGDDAFDRATALANDFLRLHAPRLQLYLQLKSWCTSNYVSDWWEEFVYLRSRGSLINSTYYMMDFLYVTPTPLQAARAGNAVHTLLLYRHLLNRQEISPTLLMGMRPLCSAQYERMFNTTRIPGVEKDHLRHLQDSRHVAVFHRGRFFRVGTHSPNGLLSPRALEQQFQDILDDPSPACPLEEHLAALTAAPRSMWAQVRESVKTHAATALEAVEGAAFFVSLDSEPAGLTREDPAASLDAYAHALLAGRGHDRWFDKSFTLIVFSNGKLGLSVEHSWADCPVSGHLWEFTLATECFQLGYATDGHCKGHPDPTLPQPQRLQWDLPEQIQPSISLALRGAKTLSGNIDCHVFPFSHFGKSFIKCCHVSSDSFIQLVLQLAHFRDRGQFCLTYESASTRLFLEGRTETVRSCTREACQFVRAMDNKETDQHCLALFRVAVDKHQALLKAAMSGQGIDRHLFALYIMSRLLHMQSPFLTQVQSQQWLLSTSQVPVQQTHLIDVHNYPDYVSSGGGFGPAHDHGYGISYIFMGENAITFHISSKKSSTETDSHRLGQHIENALLDVASLFRVGQHFKRQFRGENSDYRYNFLSCKTVDPNTPTSSTNL | 0.85 ratio to GluA1 + WT CPT1C (1.00) | 

Next, values leading:

coimmunoprecipitated CPT1C versus immunoprecipitated GluA1, relative to WT CPT1C [1] | percentage of FRET efficiency [2] [%] | Binder
 | 9.51 | YFP-CPT1CM589S for FRET (natural protein, UniProt Q8BGD5 1-798, looked up) MAEAHQASSLLSSLSSDGAEVELSSPVWQEIYLCALRSWKRHLWRVWNDFLAGVVPATPLSWLFLFSTIQLACLLQLDPSLGLMEKIKELLPDWGGQHHQLQGFLSAAVFASCLWGALIFTLHVALRLLLSHHGWLLEPHGAMSSPTKTWLALVRIFSGRHPRLFSFQRALPRQPVPSAQETVRKYLESVRPVLGDDAFDRATALANDFLRLHAPRLQLYLQLKSWCTSNYVSDWWEEFVYLRSRGSLINSTYYMMDFLYVTPTPLQAARAGNAVHTLLLYRHLLNRQEISPTLLMGMRPLCSAQYERMFNTTRIPGVEKDHLRHLQDSRHVAVFHRGRFFRVGTHSPNGLLSPRALEQQFQDILDDPSPACPLEEHLAALTAAPRSMWAQVRESVKTHAATALEAVEGAAFFVSLDSEPAGLTREDPAASLDAYAHALLAGRGHDRWFDKSFTLIVFSNGKLGLSVEHSWADCPVSGHLWEFTLATECFQLGYATDGHCKGHPDPTLPQPQRLQWDLPEQIQPSISLALRGAKTLSGNIDCHVFPFSHFGKSFIKCCHVSSDSFIQLVLQLAHFRDRGQFCLTYESASTRLFLEGRTETVRSCTREACQFVRAMDNKETDQHCLALFRVAVDKHQALLKAAMSGQGIDRHLFALYIMSRLLHMQSPFLTQVQSQQWLLSTSQVPVQQTHLIDVHNYPDYVSSGGGFGPAHDHGYGISYIFMGENAITFHISSKKSSTETDSHRLGQHIENALLDVASLFRVGQHFKRQFRGENSDYRYNFLSCKTVDPNTPTSSTNL
 | 8.7 | YFP-CPT1C, wild type, for FRET (CPT1C-SYFP2) (natural protein, human, UniProt Q8TCG5 1-803, looked up) MAEAHQAVGFRPSLTSDGAEVELSAPVLQEIYLSGLRSWKRHLSRFWNDFLTGVFPASPLSWLFLFSAIQLAWFLQLDPSLGLMEKIKELLPDWGGQHHGLRGVLAAALFASCLWGALIFTLHVALRLLLSYHGWLLEPHGAMSSPTKTWLALVRIFSGRHPMLFSYQRSLPRQPVPSVQDTVRKYLESVRPILSDEDFDWTAVLAQEFLRLQASLLQWYLRLKSWWASNYVSDWWEEFVYLRSRNPLMVNSNYYMMDFLYVTPTPLQAARAGNAVHALLLYRHRLNRQEIPPTLLMGMRPLCSAQYEKIFNTTRIPGVQKDYIRHLHDSQHVAVFHRGRFFRMGTHSRNSLLSPRALEQQFQRILDDPSPACPHEEHLAALTAAPRGTWAQVRTSLKTQAAEALEAVEGAAFFVSLDAEPAGLTREDPAASLDAYAHALLAGRGHDRWFDKSFTLIVFSNGKLGLSVEHSWADCPISGHMWEFTLATECFQLGYSTDGHCKGHPDPTLPQPQRLQWDLPDQIHSSISLALRGAKILSENVDCHVVPFSLFGKSFIRRCHLSSDSFIQIALQLAHFRDRGQFCLTYESAMTRLFLEGRTETVRSCTREACNFVRAMEDKEKTDPQCLALFRVAVDKHQALLKAAMSGQGVDRHLFALYIVSRFLHLQSPFLTQVHSEQWQLSTSQIPVQQMHLFDVHNYPDYVSSGGGFGPADDHGYGVSYIFMGDGMITFHISSKKSSTKTDSHRLGQHIEDALLDVASLFQAGQHFKRRFRGSGKENSRHRCGFLSRQTGASKASMTSTDF
